Measurements as given in paper PMC8584533, “Hetero/Homo-Complexes of Sucrose Transporters May Be a Subtle Mode to Regulate Sucrose Transportation in Grape Berries” (International Journal of Molecular Sciences, 2021).

T1: SUC11 (Chardonnay) (Vitis vinifera, UniProt Q9SQK6)
T1 construct: gene VvSUC11; full length, 500 residues, one site different from Thompson Seedless; expressed in yeast SUSY7/ura3
T1 sequence (Q9SQK6 1-501): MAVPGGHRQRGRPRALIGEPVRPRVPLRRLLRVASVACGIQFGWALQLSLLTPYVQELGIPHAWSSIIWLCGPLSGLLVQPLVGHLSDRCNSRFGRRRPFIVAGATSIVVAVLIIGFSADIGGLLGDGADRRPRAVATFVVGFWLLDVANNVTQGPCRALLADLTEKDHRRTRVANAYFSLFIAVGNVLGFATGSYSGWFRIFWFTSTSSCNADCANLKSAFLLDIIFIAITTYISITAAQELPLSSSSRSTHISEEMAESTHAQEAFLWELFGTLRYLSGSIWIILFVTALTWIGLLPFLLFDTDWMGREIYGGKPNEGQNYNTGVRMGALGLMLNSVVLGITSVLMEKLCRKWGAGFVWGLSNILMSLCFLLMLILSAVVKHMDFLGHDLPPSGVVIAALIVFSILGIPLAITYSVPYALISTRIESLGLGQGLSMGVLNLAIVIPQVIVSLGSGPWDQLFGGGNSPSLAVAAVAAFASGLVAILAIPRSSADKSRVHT

B1: VvSUC11 (Vitis vinifera) (protein)
chain: T1 sequence (Q9SQK6 1-501)
notes: full length, 500 residues (printed), leaf cDNA in pDR196, expressed in yeast SUSY7/ura3
B2: VvSUC12 (Vitis vinifera) (protein)
chain: MPETMDAPSIRVPYKNLKQAEVELVAADEPRHGADLNSRVPNGTSDPSSSPSSIPHPPKHGGLRTLILSCMIAAGVQFGWALQLSLLTPYIQTLGIEHAFSSFIWLCGPITGLVVQPCVGIWSDKCSSKYGRRRPFILAGSLMISVAVTIIGFSADIGYLLGDTNMDCRKFKGTRTWAAIIFVLGFWMLDLANNTVQGPARALLADLSGPDQRNSANAIFCSWMAVGNILGFSAGASGHWHRWFPFLLNKACCEACGNLKAAFLIAVVFLTLCTLVTLYFAEEVPLMAYQPHHLSDSAPLLDNPQQIGFDNSKSKLDMSAVDNATGNNPESSYEINKNAKHLTPIVQEQNESFSDGPGAVLVNLLTSLRHLPPAMHSVLLVMALSWLSWFPFFLFDTDWMGREVYHGDPKGDESAVKAYDAGVREGAFGLLLNSVDLGISSFLIEPMCQRMGARLVWAMSNFIVFACMAGTAIISLVSVNEYITEGIQHAIGENRAIKIASLVVFALLGFPLSITYSVPFSITAELTADTGGGQGLAIGVLNLAIVIPQMIVSLGAGPWDALFGGGNIPAFVLAALFALAAGVIATLKLPNLSSSSYKSSGFHFGNFPASMR
notes: full length, 611 residues (printed), leaf cDNA in pDR196, expressed in yeast SUSY7/ura3
B3: VvSUC27 (Vitis vinifera) (protein)
chain: MELAKPSSVFAIQDHQSSSPPTPIWKTVVVASIAAGIQFGWALQLSLLTPYVQLLGIPHKWAAFIWLCGPISGMIVQPVVGYHSDRCTSRFGRRRPFIAAGAVLVAIAVFLIGYAADIGRVSGDPLHNTIKTRAVAVFVVGFWILDVANNMLQGPCRALLADLSGTSARRTRTANALYSFFMAVGNVLGYAAGSFSKLHKMFPFARTQACDLYCANLKSCFFLSIALLLILTIIAFATVHETPLNRADIAVVEAGQPFYSQMMNAFRQLRRPMWVLLLVTCLNWIGWFPFLLFDTDWMGREVYGGTVGEGPRGRLYDLGVRAGSLGLMLNSVVLGLMSLGVEFFGRGVGGVKRLWGGVNFLLALCLALTVLVSKLAASWRHSLGGELHPPPIGIKAGALSLFAVMGVPLAITYSIPFALASIFCHSSGAGQGLSLGVLNLAIVVPQMMVSVASGPWDARFGGGNLPAFVVGAFAAALNGVLALTMLPAPPPDVPNTKDERTQPSS
notes: full length, 504 residues (printed), leaf cDNA in pDR196, expressed in yeast SUSY7/ura3

Tests used:
[1] = molecular target: T1, SUC11 (Chardonnay); assay: sucrose transport in yeast SUSY7/ura3; format: cell-based; settings: 0.1, 0.2 and 2 mM sucrose
[2] = substrate: OC[C@H]1O[C@@](CO)(O[C@H]2O[C@H](CO)[C@@H](O)[C@H](O)[C@H]2O)[C@@H](O)[C@@H]1O; assay: cells, lysate or membranes; format: cell-based, Vitis vinifera; settings: pH 5.0, 30 °C, 10 mM glucose, 20 min, expressed alone, labelled compound

Molecule | sucrose transport ability [1] | Km [2]
OC[C@H]1O[C@@](CO)(O[C@H]2O[C@H](CO)[C@@H](O)[C@H](O)[C@H]2O)[C@@H](O)[C@@H]1O [sucrose] | did not affect the structure (Figure S5a) or sucrose transport ability | 
B1 |  | 354 µM
B2 |  | 943 µM
B3 |  | 3064 µM
